{"source": "patent US20180360949A1", "key": {"CD4 [1]": {"target": "CD4 (UniProt P01730)", "experiment": "Biacore CD4 binding, lot comparison (reference material)"}, "CD4 [2]": {"target": "CD4 (UniProt P01730)", "experiment": "Biacore CD4 binding, lot comparison (clinical trial material)"}}}
{"substance": "1086.C gp120", "values": [{"measurement": "CD4 binding (Biacore) %", "setting": "CD4 [1]", "value": 100, "unit": "%"}, {"measurement": "CD4 binding (Biacore) %", "setting": "CD4 [2]", "value": 87, "unit": "%"}]}
{"substance": "TV1.C gp120", "values": [{"measurement": "CD4 binding (Biacore) %", "setting": "CD4 [1]", "value": 91, "unit": "%"}, {"measurement": "CD4 binding (Biacore) %", "setting": "CD4 [2]", "value": 98, "unit": "%"}]}
